# ± gives the standard deviation of the averaged measurements.
# System: Saccharomyces cerevisiae
# Experiment: protein stability index of tFT-peptide fusion (C-terminal peptide) (PSI (0-1 scale)); higher = more stable (slower turnover)
# Conditions: genetic background: cdc34-1; temperature: 37 C
# Procedure: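 MPS profiling in S. cerevisiae of the tFT-X12 degron library: putative degron peptides plus stable controls, 12 aa, fused to the C-terminus of a sfGFP-mCherry timer. Cells are FACS-sorted into 8 mCherry/sfGFP bins and deep-sequenced. PSI runs from 0 (unstable) to 1 (stable). Backgrounds are wild type, das1Δ and doa10Δ at 30 °C, and wild type, das1Δ, cdc34-1 and cdc53-1 at 37 °C; 2-3 technical replicates each.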
# 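Note: PSI is a weighted mean of sequencing reads over stability bins, variants kept only with over 10 reads, mCherry proximal and sfGFP distal, peptide attached via GGGS linker.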
row,Sequence,protein stability index
1,VMIFYVLGRVWD,0.428 ± 0.0048

# Same assay, conditions: genetic background: cdc53-1; temperature: 37 C
row,Sequence,protein stability index
1,SFFFLILFLFRD,0.459 ± 0.04
2,SFLACFVLAFFC,0.478 ± 0.018
3,SFPPLPPLPLPP,0.688 ± 0.0089
4,SFTRYIFFLMFF,0.475 ± 0.037
5,SGPCSPRNLRRL,0.754 ± 0.012
6,SGPTIRRRLFVH,0.735 ± 0.02
7,SLIDPLGNLFNS,0.756 ± 0.038
8,SLIFLLVLILSL,0.51 ± 0.05
9,SLLFLVLFFPLV,0.524 ± 0.025
10,SLPCCKVVFCVI,0.554 ± 0.023
11,SLVIRLNIRLIL,0.435 ± 0.0077
12,SPCSNFLECLSF,0.7431 ± 0.0018
13,SPGFVLLAVLVI,0.235 ± 0.0088
14,SPGGALVFFVLV,0.5998 ± 0.0056
15,SPRSIALLHLFS,0.708 ± 0.051
16,SPSRAGQHLYYP,0.7347 ± 0.0032
17,SPTRTCTAIRTP,0.7392 ± 0.0058
18,SRFFSSSFYRLC,0.7576 ± 0.0075
19,SRGGVFYVRIHS,0.709 ± 0.014
20,SRLLGVKVSLVC,0.567 ± 0.033
21,SRVSEFVIPLGR,0.7389 ± 0.0046
22,SSAFFFLLFSLA,0.484 ± 0.006
23,SSGIGLFVWVYG,0.456 ± 0.015
24,SSLLLLCCLLVG,0.427 ± 0.015
25,SSVCVLVSCVLG,0.5241 ± 0.0032
26,SVGWGFWARFIG,0.756 ± 0.013

row,Sequence,protein stability index
1,SVLALLWVGCWL,0.4238 ± 0.0021
2,SVQICGFWLILG,0.604 ± 0.046
3,SVRGGSFLVHLC,0.758 ± 0.011
4,SVVVLHVHVRPP,0.692 ± 0.018
5,SWCLLVWIGGVF,0.376 ± 0.033
6,SWGRGADRWRRA,0.7218 ± 0.0025
7,SYWNSSPKCGNW,0.76 ± 0.022
8,TCRLIQLTVTLH,0.3774 ± 0.001
9,TCVVCSCVLQCV,0.491 ± 0.02
10,TLCHLTLICVRE,0.253 ± 0.018
11,TLVFPRFLFLVV,0.365 ± 0.019
12,TNHRVRHWILRV,0.721 ± 0.0099
13,TRPHPLRRVFIF,0.725 ± 0.013
14,TRSLLFANRCIV,0.706 ± 0.033
15,TVCSWSALSRFM,0.7558 ± 0.0062
16,TVILVLFPSPFL,0.679 ± 0.012
17,VAFFSVFYWLEC,0.424 ± 0.066
18,VARRRQQWMRGS,0.56 ± 0.034
19,VCAFCLFFVPLP,0.668 ± 0.023
20,VCFWCLYVMFSL,0.494 ± 0.01
21,VCIPLLVIRFLV,0.182 ± 0.014
22,VCLFSVCLWFVS,0.219 ± 0.062
23,VCLLVSVCLLWL,0.244 ± 0.047
24,VCLVFLFQFVLI,0.507 ± 0.029
25,VCMVLCRWRGLG,0.704 ± 0.0075
26,VCRCFPVCLFSF,0.692 ± 0.014

row,Sequence,protein stability index
1,VCVRLVHCLVLV,0.2514 ± 0.0021
2,VFCCHSSRFVFA,0.6789 ± 0.0065
3,VFCFCRFHFFCA,0.649 ± 0.0077
4,VFFFVSFFAFSS,0.3558 ± 0.0034
5,VFFLSFIFRFFL,0.558 ± 0.02
6,VFFPCRLLPLLF,0.585 ± 0.0073
7,VFFRVLVAGCRQ,0.618 ± 0.021
8,VFGCHHLEVSVC,0.267 ± 0.0036
9,VFGVWVVVGCVG,0.101 ± 0.03
10,VFRECSFFLVCC,0.287 ± 0.011
11,VFRHFYTFLALC,0.414 ± 0.013
12,VFTGYSAFLLLC,0.578 ± 0.025
13,VGASLVVIAIGV,0.5401 ± 0.0048
14,VGKGAGVRDGSR,0.751 ± 0.019
15,VGLLFGWVWSLW,0.72401 ± 0.00029
16,VGLWFLCSLAFS,0.478 ± 0.015
17,VGYSLFTFLFCA,0.6313 ± 0.0052
18,VIQKKKKNKITS,0.729 ± 0.014
19,VIVIQGFVFVLG,0.426 ± 0.033
20,VLFSVWFFLVLV,0.0354 ± 0.0069
21,VLVLLVCVAALV,0.222 ± 0.0053
22,VLVRVIYLLVSG,0.373 ± 0.013
23,VLVWLRLRVGLR,0.322 ± 0.016
24,VLYCRSCFLRVS,0.584 ± 0.015
25,VMIFYVLGRVWD,0.5209 ± 0.0028

# Same assay, conditions: genetic background: das1 deletion; temperature: 30 C
row,Sequence,protein stability index
1,SFFFLILFLFRD,0.315 ± 0.029
2,SFLACFVLAFFC,0.346 ± 0.032
3,SFPPLPPLPLPP,0.578 ± 0.0094
4,SFTRYIFFLMFF,0.417 ± 0.023
5,SGPCSPRNLRRL,0.621 ± 0.017
6,SGPTIRRRLFVH,0.621 ± 0.012
7,SLIDPLGNLFNS,0.682 ± 0.039
8,SLIFLLVLILSL,0.369 ± 0.038
9,SLLFLVLFFPLV,0.42 ± 0.034
10,SLPCCKVVFCVI,0.417 ± 0.038
11,SLVIRLNIRLIL,0.423 ± 0.03
12,SPCSNFLECLSF,0.643 ± 0.0079
13,SPGFVLLAVLVI,0.231 ± 0.029
14,SPGGALVFFVLV,0.44 ± 0.023
15,SPRSIALLHLFS,0.655 ± 0.02
16,SPSRAGQHLYYP,0.64 ± 0.016
17,SPTRTCTAIRTP,0.666 ± 0.022
18,SRFFSSSFYRLC,0.661 ± 0.012
19,SRGGVFYVRIHS,0.628 ± 0.016
20,SRLLGVKVSLVC,0.419 ± 0.031
21,SRVSEFVIPLGR,0.622 ± 0.018
22,SSAFFFLLFSLA,0.342 ± 0.031
23,SSGIGLFVWVYG,0.282 ± 0.035
24,SSLLLLCCLLVG,0.277 ± 0.032
25,SSVCVLVSCVLG,0.375 ± 0.037
26,SVGWGFWARFIG,0.665 ± 0.014

row,Sequence,protein stability index
1,SVLALLWVGCWL,0.271 ± 0.045
2,SVQICGFWLILG,0.416 ± 0.026
3,SVRGGSFLVHLC,0.636 ± 0.018
4,SVVVLHVHVRPP,0.5839 ± 0.0056
5,SWCLLVWIGGVF,0.295 ± 0.027
6,SWGRGADRWRRA,0.649 ± 0.017
7,SYWNSSPKCGNW,0.667 ± 0.021
8,TCRLIQLTVTLH,0.257 ± 0.038
9,TCVVCSCVLQCV,0.307 ± 0.023
10,TLCHLTLICVRE,0.226 ± 0.019
11,TLVFPRFLFLVV,0.393 ± 0.031
12,TNHRVRHWILRV,0.609 ± 0.024
13,TPLLPPSPPPSR,0.27 ± 0.02
14,TRPHPLRRVFIF,0.643 ± 0.0072
15,TRSLLFANRCIV,0.619 ± 0.017
16,TVCSWSALSRFM,0.6449 ± 0.0016
17,TVILVLFPSPFL,0.472 ± 0.037
18,VAFFSVFYWLEC,0.299 ± 0.021
19,VARRRQQWMRGS,0.5261 ± 0.003
20,VCAFCLFFVPLP,0.425 ± 0.038
21,VCFWCLYVMFSL,0.383 ± 0.019
22,VCIPLLVIRFLV,0.234 ± 0.022
23,VCLFSVCLWFVS,0.16 ± 0.026
24,VCLLVSVCLLWL,0.21 ± 0.013
25,VCLVFLFQFVLI,0.406 ± 0.023
26,VCMVLCRWRGLG,0.6061 ± 0.0028

row,Sequence,protein stability index
1,VCRCFPVCLFSF,0.523 ± 0.023
2,VCVRLVHCLVLV,0.208 ± 0.02
3,VFCCHSSRFVFA,0.525 ± 0.025
4,VFCFCRFHFFCA,0.496 ± 0.025
5,VFFFVSFFAFSS,0.22 ± 0.029
6,VFFLSFIFRFFL,0.508 ± 0.035
7,VFFPCRLLPLLF,0.479 ± 0.03
8,VFFRVLVAGCRQ,0.451 ± 0.022
9,VFGCHHLEVSVC,0.259 ± 0.034
10,VFGVWVVVGCVG,0.149 ± 0.037
11,VFRECSFFLVCC,0.281 ± 0.026
12,VFRHFYTFLALC,0.472 ± 0.014
13,VFTGYSAFLLLC,0.487 ± 0.025
14,VGASLVVIAIGV,0.377 ± 0.034
15,VGKGAGVRDGSR,0.623 ± 0.0077
16,VGLLFGWVWSLW,0.56 ± 0.026
17,VGLWFLCSLAFS,0.34 ± 0.037
18,VGYSLFTFLFCA,0.481 ± 0.03
19,VIQKKKKNKITS,0.65 ± 0.022
20,VIVIQGFVFVLG,0.267 ± 0.033
21,VLFSVWFFLVLV,0.122 ± 0.032
22,VLVLLVCVAALV,0.163 ± 0.023
23,VLVRVIYLLVSG,0.23 ± 0.038
24,VLVWLRLRVGLR,0.218 ± 0.045
25,VLYCRSCFLRVS,0.436 ± 0.024
26,VMIFYVLGRVWD,0.293 ± 0.056

# Source: the supplement of paper PMC10724198
